Our source for the Kd values is PMC10296094 (Cancers, 2023).

As a reminder, the Kd is the free concentration of one partner at which half of the binding sites on the other are occupied at equilibrium, for simple one-to-one binding. Read a low Kd as higher affinity.

Where no end group is shown, it is not given here.

The experiment deals with T1, His6-tagged human centrin1 (human, UniProt Q12798 1-172).
T1 sequence (looked up): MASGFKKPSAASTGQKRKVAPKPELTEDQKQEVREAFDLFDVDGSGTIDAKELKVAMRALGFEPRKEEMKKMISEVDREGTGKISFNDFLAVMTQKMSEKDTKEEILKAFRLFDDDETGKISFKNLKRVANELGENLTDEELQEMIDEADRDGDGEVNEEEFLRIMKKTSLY
The experiment is described as follows: fluorescence polarisation; fluorescence anisotropy; 2-fold dilution series of centrin1, 100 nM Sfi1 peptide; 10 mM HEPES pH 7.4, 100 mM CaCl2, 0.005% v/v Tween 20; 45 min at RT. The conditions noted are these: both partners purified. (In fluorescence polarisation assays a small probe gives low polarisation when free and higher when bound to something large.)

B1: fluorescein-labelled Sfi1 peptide (peptide)
peptide: REVAARESQHNRQLLRGALRRWK
modifications: not fully specified (residue 23)
notes: Sfi1 (mitotic spindle regulator), human, residues 670-692; also called F-Sfi1
B1 had a Kd of 30 ± 12 nM.
